± gives the uncertainty stated by the source.
Assay: self-splicing fitness, log relative to wild type (ln ratio); higher = more splicing; Tetrahymena group I intron in knt gene, E. coli kanamycin selection, DiMSum; sequences stand for … in CUCUCU…GGAGGGAAAAGUUAUCAGGCAUGCACCUGGUAGCUAGUCUUUAAACCAAUAGAUUGCAUCGGUUUAAAAGGCAAGACCGUCAAAUUGCGGGAAAGGGGUCAACAGCCGUUCAGUACCAAGUCUCAGGGGAAACUUUGAGAUGGCCUUGCAAAGGGUAUGGUAAUAAGCUGACGGACAUGGUCCUAACCACGCAGCCAAGUCCUAAGUCAACAGAUCUUCUGUUGAUAUGGAUGCAGUUCACAGACUAAAUGUCGGUCGGGGAAGAUGUAUUCUUCUCAUAAGAUAUAGUCGGACCUCUCCUUAAUGGGAGCUAGCGGAUGAAGUGAUGCAACACUGGAGCCGCUGGGAACUAAUUUGUAUGCGAAAGUAUAUUGAUUAGUUUUGGAGUACUCGUGGUCG
How it was run: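 A randomised library covering all eight P1ex-region intron nucleotides was built with the intron in the knt kanamycin-resistance gene on pET-22b(+) and held in E. coli BL21(DE3). Cells were grown overnight at 37°C or 30°C on LB agar, with or without 25 μg/mL kanamycin, plus 100 μg/mL carbenicillin, 50 μM IPTG and 0.2% rhamnose, and pooled colonies were amplicon-sequenced on an Illumina HiSeq 2500. DiMSum fitness is the error-weighted combination of wild-type-normalised replicate fold changes, kanamycin versus none.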

Sequence	self-splicing fitness (ln) (30 °C)	self-splicing fitness (ln) (37 °C)
UCCCAGCAAUAUUACGGAUA	-1.51 ± 0.093	-0.799 ± 0.084
UCCCAGCAAUAUUACGGGAA	-3.21 ± 0.2	-1.83 ± 0.14
UCCCAGCAAUAUUACGGGGU	-3.87 ± 0.27	-2.86 ± 0.22
UCCCAGCAAUAUUACGGGUG	-1.4 ± 0.06	-0.507 ± 0.075
UCCCAGCAAUAUUACGGUAG	-2.7 ± 0.12	-1.45 ± 0.11
UCCCAGCAAUAUUACGGUCC	-1.68 ± 0.14	-1.26 ± 0.18
UCCCAGCAAUAUUACGUAAC	-2.45 ± 0.11	-1.61 ± 0.17
UCCCAGCAAUAUUACGUAGU	-0.707 ± 0.046	-0.458 ± 0.066
UCCCAGCAAUAUUACGUGAU	-2.17 ± 0.076	-1.52 ± 0.12
UCCCAGCAAUAUUACGUGCC	-4.06 ± 0.23	-2.32 ± 0.2
UCCGAGCAAUAUUACGAAAC	-2.59 ± 0.27	-1.62 ± 0.28
UCCGAGCAAUAUUACGAAAU	-4.17 ± 0.34	–
UCCGAGCAAUAUUACGAGGC	-3.1 ± 0.36	-1.7 ± 0.39
UCCGAGCAAUAUUACGAUCC	–	-0.617 ± 0.39
UCCGAGCAAUAUUACGAUGG	-0.964 ± 0.097	-0.212 ± 0.12
UCCGAGCAAUAUUACGCAGA	-3.65 ± 0.43	-2.49 ± 0.23
UCCGAGCAAUAUUACGCAUA	-2.24 ± 0.42	-2.26 ± 0.35
UCCGAGCAAUAUUACGCGGG	-3.02 ± 0.28	-2.78 ± 0.38
UCCGAGCAAUAUUACGCGUU	-3.39 ± 0.12	-1.95 ± 0.13
UCCGAGCAAUAUUACGCUGG	-3.33 ± 0.21	-1.56 ± 0.19
UCCGAGCAAUAUUACGGGGC	-4.28 ± 0.23	-2.8 ± 0.17
UCCGAGCAAUAUUACGGUGA	-0.746 ± 0.076	-0.0617 ± 0.095
UCCGAGCAAUAUUACGGUUC	-3.78 ± 0.39	-3.02 ± 0.31
UCCGAGCAAUAUUACGUACU	-3.69 ± 0.25	-2.55 ± 0.34
UCCGAGCAAUAUUACGUAUU	-1.95 ± 0.17	-2.92 ± 0.43

Sequence	self-splicing fitness (ln) (30 °C)	self-splicing fitness (ln) (37 °C)
UCCGAGCAAUAUUACGUCUA	-3.11 ± 0.23	-3 ± 0.24
UCCGAGCAAUAUUACGUGUG	-3.13 ± 0.11	-0.996 ± 0.088
UCCGAGCAAUAUUACGUUAA	-2.36 ± 0.21	-2.57 ± 0.28
UCCGAGCAAUAUUACGUUUA	-2.86 ± 0.48	-1.71 ± 0.23
UCCUAGCAAUAUUACGAAGA	-1.13 ± 0.12	0.123 ± 0.12
UCCUAGCAAUAUUACGACAG	-3.29 ± 0.25	-2.42 ± 0.31
UCCUAGCAAUAUUACGACUC	-2.94 ± 0.41	-2.24 ± 0.36
UCCUAGCAAUAUUACGACUG	-3.17 ± 0.27	-3.52 ± 0.42
UCCUAGCAAUAUUACGAGGA	-2.59 ± 0.48	-2.62 ± 0.35
UCCUAGCAAUAUUACGAUGU	-1.49 ± 0.06	-0.553 ± 0.079
UCCUAGCAAUAUUACGAUUC	–	-2.2 ± 0.29
UCCUAGCAAUAUUACGCAAA	-2.95 ± 0.21	-1.48 ± 0.12
UCCUAGCAAUAUUACGCAUA	-2.82 ± 0.3	-2.11 ± 0.2
UCCUAGCAAUAUUACGCCGA	-0.215 ± 0.11	0.0045 ± 0.11
UCCUAGCAAUAUUACGCCGU	-1.83 ± 0.26	-0.887 ± 0.24
UCCUAGCAAUAUUACGCGAG	-3.06 ± 0.27	-3.22 ± 0.37
UCCUAGCAAUAUUACGGACC	-2.64 ± 0.27	–
UCCUAGCAAUAUUACGGACG	-3.92 ± 0.4	-2.47 ± 0.39
UCCUAGCAAUAUUACGGCAG	-3.38 ± 0.24	-2.81 ± 0.22
UCCUAGCAAUAUUACGGCCG	-4.16 ± 0.42	-3.12 ± 0.37
UCCUAGCAAUAUUACGGUUA	–	-2.54 ± 0.31
UCCUAGCAAUAUUACGUCAU	-3.25 ± 0.13	-3.37 ± 0.23
UCCUAGCAAUAUUACGUGCU	-3.5 ± 0.17	-1.8 ± 0.2
UCGAAGCAAUAUUACGACUU	-1.14 ± 0.21	-2.8 ± 0.23
UCGAAGCAAUAUUACGAGAU	-4.08 ± 0.42	-2.66 ± 0.21

Sequence	self-splicing fitness (ln) (30 °C)	self-splicing fitness (ln) (37 °C)
UCGAAGCAAUAUUACGAUUU	-4.4 ± 0.39	-1.97 ± 0.23
UCGAAGCAAUAUUACGCAGG	-3.31 ± 0.23	-1.8 ± 0.16
UCGAAGCAAUAUUACGCCGA	-0.786 ± 0.25	-1.16 ± 0.28
UCGAAGCAAUAUUACGCCGG	-2.32 ± 0.13	-2.18 ± 0.19
UCGAAGCAAUAUUACGGCUU	-3.32 ± 0.27	-2.85 ± 0.22
UCGAAGCAAUAUUACGGGAG	-3.68 ± 0.33	-2.91 ± 0.31
UCGAAGCAAUAUUACGUAGG	-1.42 ± 0.08	-1.61 ± 0.1
UCGAAGCAAUAUUACGUCAC	-2.21 ± 0.12	-2.69 ± 0.27
UCGAAGCAAUAUUACGUGGG	-2.34 ± 0.14	-2.18 ± 0.18
UCGAAGCAAUAUUACGUUAU	-4.01 ± 0.28	-1.16 ± 0.15
UCGAAGCAAUAUUACGUUCA	-2.59 ± 0.26	-1.18 ± 0.17
UCGAAGCAAUAUUACGUUCG	-1.54 ± 0.12	-0.659 ± 0.19
UCGCAGCAAUAUUACGAAUG	-3.42 ± 0.23	-4.35 ± 0.42
UCGCAGCAAUAUUACGACCU	-3.1 ± 0.41	-1.37 ± 0.27
UCGCAGCAAUAUUACGAUCC	–	-1.68 ± 0.36
UCGCAGCAAUAUUACGAUCU	-1.17 ± 0.21	-2.57 ± 0.21
UCGCAGCAAUAUUACGAUGG	-0.799 ± 0.061	-0.226 ± 0.084
UCGCAGCAAUAUUACGAUUC	-3.5 ± 0.48	–
UCGCAGCAAUAUUACGCAUA	-1.94 ± 0.13	-0.0771 ± 0.11
UCGCAGCAAUAUUACGCGCC	-3.12 ± 0.17	-1.59 ± 0.13
UCGCAGCAAUAUUACGCGGC	–	-1.94 ± 0.26
UCGCAGCAAUAUUACGCGGG	-3.93 ± 0.3	-3.33 ± 0.33
UCGCAGCAAUAUUACGCGUA	-1.83 ± 0.12	-0.123 ± 0.11
UCGCAGCAAUAUUACGCUCA	-1.37 ± 0.085	-0.529 ± 0.091
UCGCAGCAAUAUUACGGAAU	-2.75 ± 0.27	-2.5 ± 0.26

Sequence	self-splicing fitness (ln) (30 °C)	self-splicing fitness (ln) (37 °C)
UCGCAGCAAUAUUACGGGCA	-1.41 ± 0.4	-0.479 ± 0.23
UCGCAGCAAUAUUACGGGGG	-2.52 ± 0.15	-1.86 ± 0.17
UCGCAGCAAUAUUACGGGUC	–	-2.14 ± 0.23
UCGCAGCAAUAUUACGGUCC	–	-1.82 ± 0.24
UCGCAGCAAUAUUACGGUGG	-3.36 ± 0.18	-2.85 ± 0.21
UCGCAGCAAUAUUACGUCCC	-4.28 ± 0.32	-2.97 ± 0.3
UCGCAGCAAUAUUACGUGGG	-4.4 ± 0.36	-2.53 ± 0.14
UCGCAGCAAUAUUACGUGUC	-3.83 ± 0.2	-2.28 ± 0.17
UCGGAGCAAUAUUACGACUU	-3.46 ± 0.22	-2.48 ± 0.19
UCGGAGCAAUAUUACGAGUC	–	-0.017 ± 0.39
UCGGAGCAAUAUUACGCACA	-2.26 ± 0.46	-2.22 ± 0.43
UCGGAGCAAUAUUACGCAGA	–	-2.13 ± 0.23
UCGGAGCAAUAUUACGCGAU	-3.51 ± 0.19	-2.42 ± 0.23
UCGGAGCAAUAUUACGCGGG	-4.21 ± 0.31	-2.77 ± 0.27
UCGGAGCAAUAUUACGGCAU	-2.73 ± 0.21	-1.97 ± 0.37
UCGGAGCAAUAUUACGGCCC	–	-2.31 ± 0.45
UCGGAGCAAUAUUACGGCGA	-1.1 ± 0.18	-0.689 ± 0.23
UCGGAGCAAUAUUACGGGCC	-4.15 ± 0.39	-3.6 ± 0.33
UCGGAGCAAUAUUACGGGGG	-2.73 ± 0.22	-2.32 ± 0.3
UCGGAGCAAUAUUACGGGUA	–	-1.76 ± 0.45
UCGGAGCAAUAUUACGGUCC	-2.33 ± 0.4	-1.73 ± 0.49
UCGGAGCAAUAUUACGUAAC	-3.51 ± 0.48	–
UCGGAGCAAUAUUACGUAUU	-4.15 ± 0.18	-2.34 ± 0.15
UCGGAGCAAUAUUACGUUAU	-3.36 ± 0.38	-2.11 ± 0.38
UCGUAGCAAUAUUACGACCU	-2.89 ± 0.22	-0.916 ± 0.15

Reference: the supplement of paper PMC7877785
